Data reported in PMC6803640, “Oligomeric state, hydrodynamic properties and target recognition of human Calcium and Integrin Binding protein 2 (CIB2)” (Scientific Reports, 2019).

What was measured:
[1] = system: Rec; conditions: presence of Ca^2+; cited from earlier work
Description: Solvation of their large hydrophobic surfaces might influence the intera ...

[2] = Analytical size exclusion chromatography; format: physicochemical; conditions: analytical SEC, 20 mM HEPES pH 7.4, 150 mM KCl, 1 mM DTT, 1 mM Mg^2+, 2 mM Ca^2+; CIB2 ∼70 µM (A2 band), Rec ∼80 µM, CaM ∼110 µM
Procedure: The molecular weight (MW) of the proteins was determined before and after DSBU-modification as previously described[7] in the same buffer (20 mM HEPES, pH 7.5, 1 mM DTT, 1 mM Mg^2+ and 2 mM Ca^2+). […] Standard calibration curve for MW estimation was the same used in our previous study.

[3] = Dynamic light scattering; format: physicochemical; conditions: 37 °C, fractions eluted from SEC (CIB2 A2 band), mean ± SEM; n = 15 (CIB2), 18 (Rec), 30 (CaM); 1.8 µM CIB2, 11 µM Rec, 7.4 µM CaM
Procedure: DLS measurements were performed using Zetasizer Nano-S (Malvern Instruments) at 37 °C by setting the same parameters for hydrodynamic diameter estimation as in ref.[26]. The estimation was based on 15–30 measurements, each consisting of at least 13 repetitions; data in Table 1 are reported as mean ± standard error of mean (SEM). DLS samples for each protein are the same collected in the Analytical Size Exclusion Chromatography.
His-tagged proteins, and then blocked via amine coupling as explained above. Preparation of the […]
approximately 2250 RU of CIB2 immobilized. In binding experiments, peptide concentration was varied in the 230 nM- 30 μM range for both α7B_M, and α7B_C, and experiments were repeated 4 times, both with the HBS buffer described above (containing 1 mM MgCl2) and with further addition of 2 mM CaCl2. Flow rate was set to 20 μl min−1 in all binding experiments, and the dissociation […]
Figure S1: DLS measurements of the SEC collected peaks. CIB2 band A2 (A), Rec (B) and CaM (C). Each data set consisted of 15-30 measurements (grey lines), with 13-15 repetitions each. Colored lines are referred to the average distribution. Temperature was set to 37°C and samples were equilibrated for 2 min before measurements.
Figure S2: Time-resolved proteolysis experiments. […]

B1: Rec: bovine Rec, Ca^2+-sensor protein (protein, UniProt P21457 2-202, looked up)
Recoverin: GNSKSGALSKEILEELQLNTKFTEEELSSWYQSFLKECPSGRITRQEFQTIYSKFFPEADPKAYAQHVFRSFDANSDGTLDFKEYVIALHMTSAGKTNQKLEWAFSLYDVDGNGTISKNEVLEIVTAIFKMISPEDTKHLPEDENTPEKRAEKIWGFFGKKDDDKLTEKEFIEGTLANKEILRLIQFEPQKVKEKLKEKKL
- concentration above which dimers were isolated [1]: above 100 μM
- MW^SEC [2]: 33.5 kDa
- DLS Ø hydrodynamic diameter [3]: 5.0 ± 0.1 nm
